Results: PMC6858872 (Nature structural & molecular biology, 2019)
Where “and” joins values, the source holds several entries; their conditions need not be identical. Equal entries are not always repeated. Where two headings read alike, the source gives them in different places.

Columns and labels:
SEC = target: the molecule itself; experiment: SEC
YFP-BiP [1] = target: T1, YFP-BiP (human, UniProt P11021 28-654); experiment: FRET or BRET
YFP-BiP [2] = target: T1, YFP-BiP; experiment: FRET or BRET; remark: listed apart in the source
YFP-BiP [3] = target: T1, YFP-BiP; experiment: FRET or BRET; remark: listed apart in the source

Binder | stoichiometry N (SEC) | Ki of the high concentration phase (Ki^High) (YFP-BiP [1]) [µM] | Ki of the high concentration phase (Ki^High) (YFP-BiP [2]) [µM] | Ki of the high concentration phase (Ki^High) (YFP-BiP [3]) [µM]
IRE1 LD (human IRE1 luminal domain, 32-440) (domain or fragment) LLFVSTLDGSLHAVSKRTGSIKWTLKEDPVLQVPTHVEEPAFLPDPNDGSLYTLGSKNNEGLTKLPFTIPELVQASPCRSSDGILYMGKKQDIWYVIDLLTGEKQQTLSSAFADSLCPSTSLLYLGRTEYTITMYDTKTRELRWNATYFDYAASLPEDDVDYKMSHFVSNGDGLVVTVDSESGDVLWIQNYASPVVAFYVWQREGLRKVMHINVAVETLRYLTFMSGEVGRITKWKYPFPKETEAKSKLTPTLYVGKYSTSLYASPSMVHEGVAVVPRGSTLPLLEGPQTDGVTIGDKGECVITPSTDVKFDPGLKSKNKLNYLRNYWLLIGHHETPLSASTKMLERFPNNLPKHRENVIPADSEKKSFEEVINLVDQTSENAPTTVSRDVEEKPAHAPARPEAPVDSM | 2 and 4 | – | – | –
CH1 (immunoglobulin fragment, inherently misfolded without CL) (domain or fragment) not shown | – | 5.2 ± 0.6 | 4.3 ± 0.4 | 0.2 ± 0.01
